One experiment concerns the target T1, Human CXCL12/SDF-1 alpha (human, UniProt P48061-2 22-89, biotinylated or 125I-labelled).
T1 construct: also called CXCL12/SDF-la; SDF-1
Briefly: flow cytometry (Fluorokine kit) on CXCR4-transfected HEK293 but not parental HEK293 cells. (In general: Flow cytometry measures light scatter and fluorescence of single cells or particles in a stream.)

Experiment [1] deals with T2, mouse P2X7 (mouse, UniProt Q9Z1M0 1-595).
T2 construct: on transfected CHO or Hek293 cells, or endogenous on Yac-1 cells; also called mP2X7; mouse purinoceptor P2X7
T2 sequence: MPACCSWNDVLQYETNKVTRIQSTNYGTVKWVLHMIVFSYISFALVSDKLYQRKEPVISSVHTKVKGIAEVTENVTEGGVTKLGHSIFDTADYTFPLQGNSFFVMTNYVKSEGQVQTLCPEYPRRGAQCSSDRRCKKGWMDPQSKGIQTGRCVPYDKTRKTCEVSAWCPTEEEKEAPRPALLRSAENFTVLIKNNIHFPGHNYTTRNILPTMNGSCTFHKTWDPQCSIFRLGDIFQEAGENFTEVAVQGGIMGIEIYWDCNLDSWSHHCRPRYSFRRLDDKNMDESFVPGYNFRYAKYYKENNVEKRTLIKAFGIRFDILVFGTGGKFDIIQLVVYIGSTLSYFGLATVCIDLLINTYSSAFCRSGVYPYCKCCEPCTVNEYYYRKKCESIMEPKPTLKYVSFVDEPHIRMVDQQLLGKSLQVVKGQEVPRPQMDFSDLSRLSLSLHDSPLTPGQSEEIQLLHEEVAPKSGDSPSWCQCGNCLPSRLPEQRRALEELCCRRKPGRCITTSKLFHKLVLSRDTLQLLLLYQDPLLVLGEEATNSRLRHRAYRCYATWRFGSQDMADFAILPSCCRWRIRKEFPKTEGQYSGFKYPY
Briefly: flow cytometry, purified Nanobody titrated on mP2X7-CHO cells.

Experiment [2] addresses T2, mouse P2X7. The experiment can be described thus: cell-based or functional assay.
The target of experiment [3] is T2, mouse P2X7. The experiment can be described thus: cell-based or functional assay. The source holds these as a separate data set.
The next experiment concerns the target T3, human P2X7 (human, UniProt Q99572 1-595).
T3 construct: on transfected Hek293 cells; also called hP2X7
T3 sequence: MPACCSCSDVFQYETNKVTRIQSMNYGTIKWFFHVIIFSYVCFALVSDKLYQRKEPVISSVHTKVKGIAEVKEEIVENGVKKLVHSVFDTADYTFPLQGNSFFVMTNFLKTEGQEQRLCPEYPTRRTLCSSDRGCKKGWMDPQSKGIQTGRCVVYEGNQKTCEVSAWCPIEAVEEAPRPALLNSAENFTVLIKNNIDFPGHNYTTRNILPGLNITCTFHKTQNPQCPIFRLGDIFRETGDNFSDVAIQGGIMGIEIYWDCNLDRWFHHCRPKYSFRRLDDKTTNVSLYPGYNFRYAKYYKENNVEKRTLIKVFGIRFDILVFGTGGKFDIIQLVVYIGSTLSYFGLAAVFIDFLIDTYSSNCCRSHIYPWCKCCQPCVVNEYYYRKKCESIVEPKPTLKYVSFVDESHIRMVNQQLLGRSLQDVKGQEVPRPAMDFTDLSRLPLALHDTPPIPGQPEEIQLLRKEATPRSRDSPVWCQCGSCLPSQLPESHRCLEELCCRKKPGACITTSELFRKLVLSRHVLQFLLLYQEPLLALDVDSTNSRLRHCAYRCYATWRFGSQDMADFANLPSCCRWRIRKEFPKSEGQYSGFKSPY
Briefly: flow cytometry, Nanobody pre-incubated with anti-Myc-FITC.

The target in a further experiment is T4, human P2X4 (human, UniProt Q99571 1-388).
T4 construct: whole, on cells; also called hP2X4
T4 sequence (looked up): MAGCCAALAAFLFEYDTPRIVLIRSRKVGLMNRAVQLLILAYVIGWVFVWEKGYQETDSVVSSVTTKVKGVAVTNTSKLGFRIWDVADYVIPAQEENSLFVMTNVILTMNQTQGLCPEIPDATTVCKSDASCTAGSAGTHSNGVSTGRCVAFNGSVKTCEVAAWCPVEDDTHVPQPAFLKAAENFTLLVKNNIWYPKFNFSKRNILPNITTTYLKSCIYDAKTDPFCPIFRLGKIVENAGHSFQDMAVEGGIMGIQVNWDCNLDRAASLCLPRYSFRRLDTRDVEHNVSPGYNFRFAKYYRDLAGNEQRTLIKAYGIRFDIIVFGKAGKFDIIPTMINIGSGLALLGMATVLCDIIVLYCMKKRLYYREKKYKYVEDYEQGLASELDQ
The experiment is described as above.

Experiment [4] has as its target T2, mouse P2X7. Briefly: cell-based or functional assay. The source holds these as a separate data set.
Experiment [5] addresses T2, mouse P2X7. Briefly: phage ELISA on fixed mP2X7-CHO vs untransfected CHO cells.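 Note: phage culture supernatant diluted 10-fold, applied for 1 h to paraformaldehyde-fixed, BSA-blocked cells in 96-well plates, with bound phage read via HRP-linked anti-M13 antibody.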 A general note: An ELISA detects its analyte on a solid surface through an enzyme-linked reagent.
Method: Sub-confluent cells were rinsed with PBS and fixed using 4% paraformaldehyde in PBS for 10 minutes at RT. Fixed cells were washed three times with PBS, and blocked with 2% BSA in PBS for 2 hours. Following blocking, 10-fold diluted culture supernatant containing phage was added and incubated for 1 hour. Cell-bound phage was detected via mouse anti-M13-HRP-conjugate (GE Healthcare, Cat nr. E2886). Rat mAb Hano43 was used as positive control.

The term EC50 denotes the concentration needed to bring the measured effect to its halfway point. Lower therefore signals higher potency in that assay.

Read-outs that look alike come from different tables or passages of the source.

T1 sequence (P48061 22-89 limits assumed): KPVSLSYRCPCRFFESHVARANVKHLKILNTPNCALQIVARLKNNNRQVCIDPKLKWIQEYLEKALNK
From the text for Human CXCL12/SDF-1 alpha: To verify the functional expression of human CXCR4, the endotoxin-free pVAX1-CXCR4 plasmid was transiently transfected into HEK293 cells using Eugene (Roche) to monitor in vitro extracellular expression via flow cytometry.

B1: human chemokine receptor CXCR4 (receptor, UniProt P61073 1-352, looked up)
chain: MEGISIYTSDNYTEEMGSGDYDSMKEPCFREENANFNKIFLPTIYSIIFLTGIVGNGLVILVMGYQKKLRSMTDKYRLHLSVADLLFVITLPFWAVDAVANWYFGNFLCKAVHVIYTVNLYSSVLILAFISLDRYLAIVHATNSQRPRKLLAEKVVYVGVWIPALLLTIPDFIFANVSEADDRYICDRFYPNDLWVVVFQFQHIMVGLILPGIVILSCYCIIISKLSHSKGHQKRKALKTTVILILAFFACWLPYYIGISIDSFILLEIIKQGCEFENTVHKWISITEALAFFHCCLNPILYAFLGAKFKTSAQHALTSVSRGSSLKILSKGKRGGHSSVSTESESSSFHSS
notes: whole, on cells; on transfected HEK293 or camelid (CAKI) cells, or as membrane vesicles / membrane extracts of transfected HEK293 cells; also called hCXCR4
Regarding B1, in the experiment with Human CXCL12/SDF-1 alpha, the binding result is listed as “binds”.

B2: P2X7PMP13A7 (VHH)
VHH: EVQLVESGGGLVQPGESLRLSCTASRFMLDYYDIGWFRQAPGKEREGVSCRFTNDGSTAYADSVKGRFTISRDIVKHTVYLQMNSLQPEDTAVYYCAAGPLTKRRQCVPGDFSMDFWGEGTLVTVSS
notes: family 22; on phage or c-myc/His6-tagged in assays
B2: in the experiment with mouse P2X7 [1], the 50% effective concentration (EC50) worked out at 3.4 nM. Besides, the “IC50 (read off the curve)” value is around 4 nM with mouse P2X7 [2] and around 1 nM in the experiment with mouse P2X7 [4]. Further, in the experiment with mouse P2X7 [3], the “ATP IC50 by 2 uM NB (head prints 'mM'; ligand titration at fixed Nanobody, CD62L shedding, Yac-1 cells)” value was determined as 0.565 mM. The “IC50 (nM) against 20 uM NAD (CD62L shedding, Yac-1 cells)” value in the experiment with mouse P2X7 [3] was 11 nM. In the experiment with mouse P2X7 [3], the “IC50 (nM) against 100 uM ATP (CD62L shedding, Yac-1 cells)” value was found to be 6 nM. Moreover, the binding result in the experiment with human P2X7 and with human P2X4 was “no binding (tested: 147 nM)” throughout. Moreover, the “Fold Cho P2X7/wt (phage ELISA)” value in the experiment with mouse P2X7 [5] was 25 fold.
